Legend:
[1] = biological target: GARP Y137H / TGF-β1 complex (human, UniProt Q14392 20-662; P01137 30-390); experiment: FACS 293T, 5 ug/ml, normalised to anti-HA
Source text: (§1) Resolution of the crystal structure of MHG-8 Fab/GARP/TGF-β1 complexes and analysis with the CONTACT software allowed the identification of 22 amino-acids in GARP, 8 amino-acids in LAP and 6 amino-acids in mature TGF-β1 that are located less than 5 Å away from an amino-acid of the light or heavy chain of the MHG-8 Fab (Tables 7a, b and c, and Table 8). Directed mutagenesis was used to construct plasmids encoding HA-tagged forms of GARP or TGF-β1 that are mutated at one, two, or three of these 36 positions (all mutations constructed are indicated in Table 8). […] Antibodies were used at a saturating concentration of 5 μg/ml for labeling. Binding of each antibody to a given mutant GARP/TGF-β1 complex was compared to their binding to wild type (WT) complexes, by determining an I_{m/wt} value (i.e. intensity of binding to mutant by comparison to WT). This value was calculated as follows: I_{m/wt} of antibody X=[Geom on mutant−Geom on control]/[Geom on WT−Geom on control]
(§2) The level of residual binding of anti-GARP or anti-LAP antibodies to each mutant was then calculated by comparison to WT, taking into account the expression levels of mutant and WT forms as measured with anti-HA antibodies. Residual binding was calculated as follows: Residual binding by an anti-GARP or anti-LAP antibody=[I_{m/wt} with anti-GARP or anti-LAP antibody]/[I_{m/wt} with anti-HA antibody]

[2] = biological target: GARP Y137H/S138G/G139N / TGF-β1 complex (human, UniProt Q14392 20-662; P01137 30-390); experiment: FACS 293T, 5 ug/ml, normalised to anti-HA
Source text: as §1, §2

[3] = biological target: GARP R143Y / TGF-β1 complex (human, UniProt Q14392 20-662; P01137 30-390); experiment: FACS 293T, 5 ug/ml, normalised to anti-HA
Source text: as §1, §2

[4] = biological target: GARP T162D / TGF-β1 complex (human, UniProt Q14392 20-662; P01137 30-390); experiment: FACS 293T, 5 ug/ml, normalised to anti-HA
Chain of GARP T162D / TGF-β1 complex (Q14392 20-662 T162D limits assumed, chain 1 of 2): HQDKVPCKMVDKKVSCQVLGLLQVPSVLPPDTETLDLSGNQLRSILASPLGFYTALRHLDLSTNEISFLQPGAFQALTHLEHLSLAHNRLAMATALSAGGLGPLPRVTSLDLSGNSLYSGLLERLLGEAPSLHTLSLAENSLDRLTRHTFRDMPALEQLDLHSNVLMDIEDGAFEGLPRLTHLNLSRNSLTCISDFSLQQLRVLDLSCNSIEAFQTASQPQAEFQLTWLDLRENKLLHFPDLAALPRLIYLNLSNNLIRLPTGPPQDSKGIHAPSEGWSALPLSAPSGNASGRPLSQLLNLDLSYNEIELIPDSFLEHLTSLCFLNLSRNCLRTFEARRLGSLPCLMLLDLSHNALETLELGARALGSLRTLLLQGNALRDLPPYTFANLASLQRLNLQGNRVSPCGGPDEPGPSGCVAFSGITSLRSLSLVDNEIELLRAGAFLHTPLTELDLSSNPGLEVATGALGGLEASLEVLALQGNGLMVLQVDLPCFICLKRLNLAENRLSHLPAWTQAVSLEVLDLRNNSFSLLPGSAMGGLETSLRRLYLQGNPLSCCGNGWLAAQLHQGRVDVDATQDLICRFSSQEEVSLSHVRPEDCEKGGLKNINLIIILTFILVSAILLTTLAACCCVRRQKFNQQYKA
Chain of GARP T162D / TGF-β1 complex (P01137 30-390 limits assumed, chain 2 of 2): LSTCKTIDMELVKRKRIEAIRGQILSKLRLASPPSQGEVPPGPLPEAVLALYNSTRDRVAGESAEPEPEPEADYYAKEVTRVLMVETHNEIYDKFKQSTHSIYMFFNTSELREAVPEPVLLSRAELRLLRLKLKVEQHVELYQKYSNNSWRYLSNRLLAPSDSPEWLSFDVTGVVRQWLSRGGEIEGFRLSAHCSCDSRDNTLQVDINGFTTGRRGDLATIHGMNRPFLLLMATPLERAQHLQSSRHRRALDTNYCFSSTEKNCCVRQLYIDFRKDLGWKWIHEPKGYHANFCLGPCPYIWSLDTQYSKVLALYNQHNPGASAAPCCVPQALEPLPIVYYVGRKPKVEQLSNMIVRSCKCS
Source text: as §1, §2

[5] = biological target: GARP R163E / TGF-β1 complex (human, UniProt Q14392 20-662; P01137 30-390); experiment: FACS 293T, 5 ug/ml, normalised to anti-HA
Chain of GARP R163E / TGF-β1 complex (Q14392 20-662 R163E limits assumed, chain 1 of 2): as the sequence (Q14392 20-662 T162D limits assumed, chain 1 of 2) above, with D143T, R144E counted along it
Chain of GARP R163E / TGF-β1 complex (P01137 30-390 limits assumed, chain 2 of 2): as the sequence (P01137 30-390 limits assumed, chain 2 of 2) above
Source text: as §1, §2

[6] = biological target: GARP / TGF-β1 Y336A complex (human, UniProt Q14392 20-662; P01137 30-390); experiment: FACS 293T, 5 ug/ml, normalised to anti-HA
Source text: as §1, §2

[7] = biological target: GARP / TGF-β1 K338E complex (human, UniProt Q14392 20-662; P01137 30-390); experiment: FACS 293T, 5 ug/ml, normalised to anti-HA
Source text: as §1, §2

[8] = biological target: T1, recombinant soluble human GARP-TGFβ1 complex (human, UniProt Q14392 20-628; P01137 30-390); experiment: SPR (Biacore), hGARP-TGFβ1 immobilised
T1 construct: co-expressed in HEK293E, purified by the Strep-Tag; TGFβ consists of LAP and mature TGFβ; also called shGARP-TGFβ; rhGARP-TGFβ
T1 sequence (Q14392 other isoform, or with tags, fused parts or gaps limits assumed, chain 1 of 2): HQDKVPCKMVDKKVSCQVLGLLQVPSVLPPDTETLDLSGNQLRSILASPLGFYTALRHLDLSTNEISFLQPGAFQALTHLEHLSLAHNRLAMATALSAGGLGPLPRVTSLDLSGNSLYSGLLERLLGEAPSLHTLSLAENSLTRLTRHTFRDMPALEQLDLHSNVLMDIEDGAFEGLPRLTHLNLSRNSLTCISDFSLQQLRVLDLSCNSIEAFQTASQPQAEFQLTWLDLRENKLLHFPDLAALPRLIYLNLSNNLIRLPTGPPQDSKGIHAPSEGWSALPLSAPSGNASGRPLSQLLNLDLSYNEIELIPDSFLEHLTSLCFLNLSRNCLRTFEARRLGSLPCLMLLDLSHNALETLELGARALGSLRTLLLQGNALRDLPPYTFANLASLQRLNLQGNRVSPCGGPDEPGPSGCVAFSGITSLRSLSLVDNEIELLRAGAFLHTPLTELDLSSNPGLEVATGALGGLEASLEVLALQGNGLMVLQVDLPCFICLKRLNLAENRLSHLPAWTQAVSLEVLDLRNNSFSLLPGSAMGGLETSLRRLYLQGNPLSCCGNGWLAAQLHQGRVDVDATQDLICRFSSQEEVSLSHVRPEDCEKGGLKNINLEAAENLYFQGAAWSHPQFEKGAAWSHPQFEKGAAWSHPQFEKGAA
T1 sequence (P01137 30-390 limits assumed, chain 2 of 2): as the sequence (P01137 30-390 limits assumed, chain 2 of 2) above

[9] = biological target: T2, human TGF-β1 (latent) (human, UniProt P01137 30-390); experiment: FACS, 293T + hTGFB1 only [cont.) B]
T2 construct: from transfected hTGFB1; also called hTGF-β1; hTGFB1
T2 sequence (P01137 30-390 limits assumed): as the sequence (P01137 30-390 limits assumed, chain 2 of 2) above
Source text: No latent TGF-β is detected on their surface with an anti-LAP antibody. Transfection of GARP or TGFB1 alone induces no or low surface LAP, respectively, whereas co-transfection of GARP and TGFB1 induces high surface LAP as a result of latent TGF-β1 binding and presentation by GARP (FIG. 14, part B, left histograms).

[10] = biological target: T3, chimera 141 / hTGF-β1 complex on the cell surface (Mus musculus, UniProt G3XA59); experiment: FACS, 293T, HA-tagged construct + hTGFB1
T3 construct: N-terminal part
T3 sequence (G3XA59 other isoform, or with tags, fused parts or gaps mutant limits assumed, chain 1 of 2): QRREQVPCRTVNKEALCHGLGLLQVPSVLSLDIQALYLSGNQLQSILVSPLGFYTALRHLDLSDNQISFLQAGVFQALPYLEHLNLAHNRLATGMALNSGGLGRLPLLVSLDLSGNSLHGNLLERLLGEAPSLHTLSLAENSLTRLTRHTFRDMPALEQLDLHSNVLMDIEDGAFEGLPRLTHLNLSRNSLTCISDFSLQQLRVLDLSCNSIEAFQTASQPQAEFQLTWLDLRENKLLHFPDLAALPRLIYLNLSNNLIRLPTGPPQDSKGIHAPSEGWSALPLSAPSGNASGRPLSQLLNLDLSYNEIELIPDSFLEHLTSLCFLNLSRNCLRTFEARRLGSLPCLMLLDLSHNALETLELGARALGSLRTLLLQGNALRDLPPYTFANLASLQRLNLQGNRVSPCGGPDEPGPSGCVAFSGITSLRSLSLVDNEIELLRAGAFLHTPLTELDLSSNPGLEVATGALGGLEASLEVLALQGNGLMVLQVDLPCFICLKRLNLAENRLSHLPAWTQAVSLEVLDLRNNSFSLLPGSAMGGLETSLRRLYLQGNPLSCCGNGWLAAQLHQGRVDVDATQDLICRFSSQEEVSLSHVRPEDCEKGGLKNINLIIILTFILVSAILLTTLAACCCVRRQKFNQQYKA
T3 sequence (TGF-β1, as listed by the source mutant limits assumed, chain 2 of 2): as the sequence (P01137 30-390 limits assumed, chain 2 of 2) above

[11] = biological target: T4, chimera 207 / hTGF-β1 complex on the cell surface (Mus musculus, UniProt G3XA59); experiment: FACS, 293T, HA-tagged construct + hTGFB1
T4 construct: N-terminal part

[12] = biological target: T5, chimera 265 / hTGF-β1 complex on the cell surface (Mus musculus, UniProt G3XA59); experiment: FACS, 293T, HA-tagged construct + hTGFB1
T5 construct: N-terminal part

[13] = biological target: T6, chimera 332 / hTGF-β1 complex on the cell surface (Mus musculus, UniProt G3XA59); experiment: FACS, 293T, HA-tagged construct + hTGFB1
T6 construct: N-terminal part

[14] = biological target: T7, mGARP/hTGF-β1 complex on the cell surface (mouse; human, UniProt G3XA59 18-663); experiment: FACS, 293T, HA-tagged mouse GARP + hTGFB1
T7 construct: whole, on cells; also called cells transfected with hTGFB1 and mGARP

[15] = biological target: GARP G118L/G119L / TGF-β1 complex (human, UniProt Q14392 20-662; P01137 30-390); experiment: flow cytometry titration on transfected 293T cells; grade of Reduced avidity read by footnote 3
Procedure: (§3) Intensities of staining at each concentration of antibody relative to the maximal intensity measured at 5 μg/ml were determined as follows:
(§4) The relative staining intensities were plotted according to the concentration of antibody used for staining, and a non-linear regression analysis was used with the Prism software to determine an EC₅₀ value for binding of the antibody to the WT and to each of the various mutant GARP/TGF-β1 complexes. If the ratio between the EC₅₀ measured on the mutant and the EC₅₀ measured on the WT was >2, the mutation was considered to induce a reduced avidity for binding by the antibody. The ratio of EC₅₀ (mutant vs WT) for MHG-8 and LHG-10 are indicated below each mutation on FIG. 19, parts A and B, respectively.

[16] = biological target: GARP / TGF-β1 Y284A complex (human, UniProt Q14392 20-662; P01137 30-390); experiment: as above
Procedure: as §3, §4

B1: LHG-10 (antibody, human IgG1, V domains shown)
VH: EVQLVQPGAELRNSGASVKVSCKASGYRFTSYYIDWVRQAPGQGLEWMGRIDPEDGGTKYAQKFQGRVTFTADTSTSTAYVELSSLRSEDTAVYYCARNEWETVVVGDLMYEYEYWGQGTQVTVSS
VL: DIQMTQSPTSLSASLGDRVTITCQASQSISSYLAWYQQKPGQAPKLLIYGASRLQTGVPSRFSGSGSGTSFTLTISGLEAEDAGTYYCQQYDSLPVTFGQGTKVELK
notes: llama-derived V regions in a full human IgG1
residual binding (% of WT) [1]: 62% | residual binding (% of WT) [2]: 6% | residual binding (% of WT) [3]: 68% | residual binding (% of WT) [4]: 49% | residual binding (% of WT) [5]: 48% | residual binding (% of WT) [6]: 56% | residual binding (% of WT) [7]: 15% | Kd [8]: 0.131 nM | fold improvement of KD (reference LHG-10) [8]: 1 fold | fold improvement of ka (reference LHG-10) [8]: 1 fold | fold improvement of kd (reference LHG-10) [8]: 1 fold | koff [8]: 3.12e-05 s⁻¹ | kon [8]: 239000 M⁻¹ s⁻¹ | binding result [9]: no binding | binding result [10]: no binding | binding result [11]: no binding | binding result [12]: no binding | binding result [13]: no binding | binding result [14]: no binding | ratio of EC50 (mutant vs WT) [15]: ≤ 2 ratio | ratio of EC50 (mutant vs WT) [16]: ≤ 2 ratio

Reference: US20160251438A1 (LUDWIG INSTITUTE FOR CANCER RESEARCH, published 2016)
